Data on 1 molecule can be found in patent publication US20150359907A1 (GENISPHERE, published 2015).

For this assay, the target named is T1, transferrin receptor (TfR/CD71) on TfR-expressing LAPC-4 cells (human, UniProt P02786 1-760).
T1 construct: whole, on cells
The experiment in a line: binding of dendrimer to cells in vitro; method not detailed.

Ends that are not written are not given here.

T1 sequence (P02786 whole entry): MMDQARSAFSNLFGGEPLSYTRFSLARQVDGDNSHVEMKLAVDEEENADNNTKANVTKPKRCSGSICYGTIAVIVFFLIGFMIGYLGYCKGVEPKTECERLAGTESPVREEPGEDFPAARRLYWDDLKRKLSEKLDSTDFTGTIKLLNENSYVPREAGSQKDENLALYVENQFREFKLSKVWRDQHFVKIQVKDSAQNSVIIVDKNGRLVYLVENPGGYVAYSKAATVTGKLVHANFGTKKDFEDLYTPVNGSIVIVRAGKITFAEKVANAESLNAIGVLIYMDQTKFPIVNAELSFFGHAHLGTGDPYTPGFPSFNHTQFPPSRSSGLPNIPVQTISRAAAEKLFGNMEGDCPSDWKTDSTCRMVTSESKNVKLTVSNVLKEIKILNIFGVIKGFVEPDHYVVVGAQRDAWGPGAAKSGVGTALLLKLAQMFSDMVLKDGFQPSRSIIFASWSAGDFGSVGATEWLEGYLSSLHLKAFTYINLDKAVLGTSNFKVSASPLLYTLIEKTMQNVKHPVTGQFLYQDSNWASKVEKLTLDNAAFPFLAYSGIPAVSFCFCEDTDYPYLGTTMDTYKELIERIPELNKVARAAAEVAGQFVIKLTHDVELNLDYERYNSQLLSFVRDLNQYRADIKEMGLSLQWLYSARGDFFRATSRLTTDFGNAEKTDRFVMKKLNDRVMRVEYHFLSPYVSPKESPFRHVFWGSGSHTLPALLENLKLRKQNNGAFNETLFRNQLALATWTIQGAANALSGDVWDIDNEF

B1: TfR peptide-derivatized dendrimer (transferrin receptor (TfR/CD71) targeting peptide THRPPMWSPVWP on a 2-layer DNA dendrimer) (peptide)
peptide: THRPPMWSPVWP
modifications: also: coupled to oligonucleotide cplCap03 on a DNA dendrimer, site not given here
notes: The peptide-oligonucleotide conjugate was hybridised to capture oligonucleotides on a Cy3-labelled 2-layer DNA dendrimer carrying a ligated plasmid; About 2-5 peptides per dendrimer molecule; The protein part is only the 12-mer peptide; also called TfR targeting peptide; 2n-Cy3 3DNA-TfR peptide-K5/CFP
Take B1: the binding result is given as “binds”.
